Measured values as given in paper PMC4899871.

Target: GST-HA-ATG16L1-231–607 produced in yeast (extended WDD construct that includes residue 300), Q676U5
Experiment: peptide microarray
Conditions: chain shown with the change, probe purified from yeast, mean ± s.d., n=9 replicas, read off a plot

Chain of GST-HA-ATG16L1-231–607 produced in yeast (extended WDD construct that includes residue 300), Q676U5 (Q676U5 231-607): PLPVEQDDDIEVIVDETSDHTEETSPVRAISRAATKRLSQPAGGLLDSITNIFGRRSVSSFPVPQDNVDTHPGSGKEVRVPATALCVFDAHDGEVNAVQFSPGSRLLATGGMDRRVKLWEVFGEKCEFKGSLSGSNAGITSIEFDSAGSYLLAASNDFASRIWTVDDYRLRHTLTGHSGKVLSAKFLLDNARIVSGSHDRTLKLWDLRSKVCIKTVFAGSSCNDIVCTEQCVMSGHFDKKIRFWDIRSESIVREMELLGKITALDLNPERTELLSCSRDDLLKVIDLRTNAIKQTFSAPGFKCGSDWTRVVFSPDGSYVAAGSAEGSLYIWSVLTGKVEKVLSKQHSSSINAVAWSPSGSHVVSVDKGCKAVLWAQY

percent of parent (parent: est. 100, scale: % of WT peptide): 12 | response (parent: est. 1100): 200 a.u. (OD635)
Binder: TAVEQAVPSAKLSIAGDAE
